{
  "source": "patent US12618828B2",
  "about": "“Probe and method for detecting membrane-associated molecules in living cells” (priority 2021, dated 2026)",
  "format_in_all_cases": "cell-based",
  "key": {"GβGγ dimer": {"target": "T1, GβGγ dimer (Homo sapiens, UniProt P59768+P62873)", "T1 construct": "expressed in transfected cells; host or cells: HEK293", "T1 sequence (P62873 2-340 limits assumed)": "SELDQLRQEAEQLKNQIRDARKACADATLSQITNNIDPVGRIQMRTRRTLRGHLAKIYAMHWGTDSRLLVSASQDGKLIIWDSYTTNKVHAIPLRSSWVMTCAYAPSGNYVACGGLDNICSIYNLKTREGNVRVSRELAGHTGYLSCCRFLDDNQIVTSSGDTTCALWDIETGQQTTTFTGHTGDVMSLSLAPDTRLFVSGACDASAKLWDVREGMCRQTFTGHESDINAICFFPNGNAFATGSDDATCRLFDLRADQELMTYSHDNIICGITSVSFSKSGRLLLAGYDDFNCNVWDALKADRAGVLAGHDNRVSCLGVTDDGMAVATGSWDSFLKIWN", "T1 sequence (P59768 2-68 limits assumed)": "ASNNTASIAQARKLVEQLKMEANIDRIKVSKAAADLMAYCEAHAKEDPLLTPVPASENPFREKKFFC", "experiment": "Polarization microscopy of probe in HEK293 cells, with or without cotransfected GβGγ dimer", "settings": "cotransfection of plasmids encoding the, excitation polarization resolved single-photon confocal microscopy", "experimental": "(§1) Prior to microscopy observations, mammalian cells (HEK293) were cultured at 37° C. under an atmosphere of 95% air, 5% CO2, in Dulbecco's modified Eagle's medium with Glutamax I and high glucose (Life Technologies), supplemented with 10% fetal bovine serum. Cells were plated on 8-chamber microscopy slides (p-Slides, Ibidi GmbH, Germany). Transfections were carried out using 0.2 μg of plasmid DNA and Lipofectamine 2000 (Life Technologies), according to the protocol of the manufacturer. In cotransfections, 0.2 μg of each of the plasmids were used. Microscopy experiments were carried out 48 h after transfection. […]\n(§2) In excitation polarization resolved single-photon laser scanning confocal microscopy, the cells (in the multi-well cover slip) were observed using a single-photon laser scanning confocal microscope Olympus FV1200, modified for excitation-polarization resolved microscopy. […] Fluorescence of wavelengths in the range of 510-610 nm was separated from the excitation light by a long-pass dichroic mirror (DM405/488, Olympus, Japan), diffractive grating, and an adjustable slit, and detected by a photomultiplier. […]\n(§3) The resulting images were deconvolved and quantitatively analyzed by following published procedures (Bondar A & al., Communications Biology. 2021 Feb. 12; 4(1):1-2.) that rely on publicly available software tools. […]"}, "[1]": {"target": "T2, activated form of the insulin receptor 1 (Homo sapiens, UniProt P06213)", "T2 construct": "His tag (named His6); expressed in transfected cells; host or cells: HEK293", "T2 sequence (P06213 with tags, fused parts or gaps isoform P06213-2)": "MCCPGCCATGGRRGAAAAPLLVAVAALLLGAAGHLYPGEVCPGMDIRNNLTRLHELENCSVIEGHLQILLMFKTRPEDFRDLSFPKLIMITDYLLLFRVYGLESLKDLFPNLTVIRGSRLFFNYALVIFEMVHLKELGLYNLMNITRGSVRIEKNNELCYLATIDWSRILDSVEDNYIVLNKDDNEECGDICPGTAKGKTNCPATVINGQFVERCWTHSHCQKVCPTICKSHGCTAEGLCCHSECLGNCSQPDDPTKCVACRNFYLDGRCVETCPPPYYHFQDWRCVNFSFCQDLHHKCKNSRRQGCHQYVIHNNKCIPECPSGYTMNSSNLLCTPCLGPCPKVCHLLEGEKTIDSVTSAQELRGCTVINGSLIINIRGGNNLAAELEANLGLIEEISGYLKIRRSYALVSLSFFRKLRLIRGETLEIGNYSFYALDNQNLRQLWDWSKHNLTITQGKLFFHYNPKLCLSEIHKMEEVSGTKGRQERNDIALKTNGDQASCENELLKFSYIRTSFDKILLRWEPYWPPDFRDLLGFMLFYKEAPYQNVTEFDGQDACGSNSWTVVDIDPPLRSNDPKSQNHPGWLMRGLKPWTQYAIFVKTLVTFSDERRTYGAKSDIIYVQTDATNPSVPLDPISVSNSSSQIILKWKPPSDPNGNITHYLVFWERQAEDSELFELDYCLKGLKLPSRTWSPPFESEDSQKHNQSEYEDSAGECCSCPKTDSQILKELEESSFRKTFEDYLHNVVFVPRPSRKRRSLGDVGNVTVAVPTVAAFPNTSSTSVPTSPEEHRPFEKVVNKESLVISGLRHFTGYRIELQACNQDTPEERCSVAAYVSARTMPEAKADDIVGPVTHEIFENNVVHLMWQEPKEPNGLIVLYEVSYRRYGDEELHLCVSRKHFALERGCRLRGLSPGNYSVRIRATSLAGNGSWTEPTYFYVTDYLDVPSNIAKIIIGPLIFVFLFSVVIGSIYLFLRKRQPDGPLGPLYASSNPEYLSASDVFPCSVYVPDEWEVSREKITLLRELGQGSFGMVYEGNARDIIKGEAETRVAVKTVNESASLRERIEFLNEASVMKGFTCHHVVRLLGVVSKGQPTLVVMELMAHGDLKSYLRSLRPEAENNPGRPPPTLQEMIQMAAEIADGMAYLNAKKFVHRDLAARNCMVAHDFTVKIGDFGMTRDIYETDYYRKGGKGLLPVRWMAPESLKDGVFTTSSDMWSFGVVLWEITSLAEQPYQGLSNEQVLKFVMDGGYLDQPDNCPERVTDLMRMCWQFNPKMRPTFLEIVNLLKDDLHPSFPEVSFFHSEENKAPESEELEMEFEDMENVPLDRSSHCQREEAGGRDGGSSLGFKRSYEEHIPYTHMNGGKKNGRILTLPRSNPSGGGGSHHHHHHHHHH", "experiment": "Polarization microscopy of probe in HEK293 cells, insulin receptor 1 activated by serum insulin", "settings": "cotransfection of insulin receptor 1 plasmid, activated by 5% fetal bovine serum containing natural levels of insulin, excitation polarization resolved single-photon confocal microscopy", "experimental": "as §1, §2, §3"}, "[2]": {"target": "T3, activated form of the G-protein Gαi1 (Gαi1(Q204L)) (Homo sapiens, UniProt P63096, Q204L)", "T3 construct": "expressed in transfected cells; host or cells: HEK293", "T3 sequence (P63096 whole entry Q204L, the tested form may be a part)": "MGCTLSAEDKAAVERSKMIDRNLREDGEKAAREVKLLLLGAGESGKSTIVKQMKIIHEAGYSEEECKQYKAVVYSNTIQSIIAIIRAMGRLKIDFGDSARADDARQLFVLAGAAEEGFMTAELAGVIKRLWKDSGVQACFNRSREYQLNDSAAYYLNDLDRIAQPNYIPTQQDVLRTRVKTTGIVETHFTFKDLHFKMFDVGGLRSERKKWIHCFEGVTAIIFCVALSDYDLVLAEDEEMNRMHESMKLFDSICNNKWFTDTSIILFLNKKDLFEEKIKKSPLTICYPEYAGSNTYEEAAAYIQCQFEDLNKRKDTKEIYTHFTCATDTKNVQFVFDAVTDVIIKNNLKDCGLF", "experiment": "Polarization microscopy of probe in HEK293 cells, with or without cotransfected constitutively activated Gαi1(Q204L)", "settings": "cotransfection of Gαi1(Q204L) plasmid", "excerpt": "A protein (SEQ ID NO:5) that includes as an anchoring moiety a fragment of the protein h-Ras, a flexible peptide linker (amino acid sequence GSGGSGG (SEQ ID NO:1)), a monomeric enhanced green fluorescent protein (meGFP) as a fluorescent moiety, and an affinity binding peptide KB1753 known to bind the activated form of the G-protein Gαi1 (Johnston C A & al., Structure. 2005 Jul. 1; 13(7):1069-80), was encoded into a DNA sequence (SEQ ID NO:6) and cloned into a mammalian expression vector (pcDNA3.1(+)) under the control of the cytomegalovirus (CMV) promoter. The resulting DNA encoding the probe of invention was transfected into HEK293 cells either alone, or along with DNA encoding the target protein of the probe.\nPrior to microscopy observations, mammalian cells (HEK293) were cultured at 37° C. under an atmosphere of 95% air, 5% CO2, in Dulbecco's modified Eagle's medium with Glutamax I and high glucose (Life Technologies), supplemented with 10% fetal bovine serum. Cells were plated on 8-chamber microscopy slides (p-Slides, Ibidi GmbH, Germany). Transfections were carried out using 0.2 μg of plasmid DNA and Lipofectamine 2000 (Life Technologies), according to the protocol of the manufacturer. In cotransfections, 0.2 μg of each of the plasmids were used. Microscopy experiments were carried out 48 h after transfection. Microscopy observations were performed at 37° C., maintained by a heated chamber (iBidi Heating System, iBidi).\nThe cells were observed by excitation polarization resolved single-photon laser scanning confocal microscopy, by excitation polarization resolved two-photon laser scanning microscopy, by excitation polarization resolved single-photon wide-field fluorescence microscopy, and by fluorescence polarization resolved single-photon laser scanning confocal microscopy.\nIn excitation polarization resolved single-photon laser scanning confocal microscopy, the cells (in the multi-well cover slip) were observed using a single-photon laser scanning confocal microscope Olympus FV1200, modified for excitation-polarization resolved microscopy. Specifically, the excitation laser beam was passed through an electrooptical polarization modulator (RPM-2P, Innovative Bioimaging, USA) synchronized with the function of the microscope so that the direction of polarization of the laser light was alternated between horizontal and vertical direction (within the image) between acquisition of individual pixels of the image. In order to observe the probes of invention containing the green fluorescent protein (GFP), 488 nm wavelength was used for excitation. Fluorescence of wavelengths in the range of 510-610 nm was separated from the excitation light by a long-pass dichroic mirror (DM405/488, Olympus, Japan), diffractive grating, and an adjustable slit, and detected by a photomultiplier. The samples were imaged by a 40× water immersion lens (UApoN340, NA1.15. Olympus, Japan).\nThe resulting images were deconvolved and quantitatively analyzed by following published procedures (Bondar A & al., Communications Biology. 2021 Feb. 12; 4(1):1-2.) that rely on publicly available software tools. Briefly, an acquired image, containing in different pixels information on fluorescence intensity excited with distinct polarizations of excitation light was deconvolved into two images, each containing fluorescence intensity excited by one polarization of the excitation light. After background subtraction, an image was generated to show, in each pixel, the base 2 logarithm of the ratio between the values of the corresponding pixels of the images containing information on fluorescence intensity excited with a horizontal and vertical polarization of excitation light. The resulting image was segmented to identify parts that correspond to the cell membrane. […]"}, "[3]": {"target": "T4, activated form of the μ-opioid receptor (Homo sapiens, UniProt P35372)", "T4 construct": "expressed in transfected cells; host or cells: HEK293", "experiment": "Polarization microscopy of probe in HEK293 cells, μ-opioid receptor activated by DAMGO", "settings": "cotransfection of μ-opioid receptor plasmid and 10 μM DAMGO, excitation polarization resolved single-photon confocal microscopy", "experimental": "as §1, §2, §3"}, "[4]": {"target": "T5, activated form of the G-protein Gα13 (Gα13(Q226L)) (Homo sapiens, UniProt Q14344, Q226L)", "T5 construct": "expressed in transfected cells; host or cells: HEK293", "T5 sequence (Q14344 1-377 Q226L)": "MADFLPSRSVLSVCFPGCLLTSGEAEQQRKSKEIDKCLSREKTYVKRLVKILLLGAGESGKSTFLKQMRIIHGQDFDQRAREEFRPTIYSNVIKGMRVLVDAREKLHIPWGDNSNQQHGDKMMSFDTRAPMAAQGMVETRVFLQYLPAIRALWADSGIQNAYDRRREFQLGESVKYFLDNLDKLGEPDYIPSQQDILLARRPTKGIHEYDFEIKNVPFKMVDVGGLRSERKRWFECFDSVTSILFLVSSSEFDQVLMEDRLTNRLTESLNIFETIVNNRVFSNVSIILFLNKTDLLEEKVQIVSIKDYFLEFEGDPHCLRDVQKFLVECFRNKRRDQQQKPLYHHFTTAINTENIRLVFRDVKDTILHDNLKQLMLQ", "experiment": "Polarization microscopy of probe in HEK293 cells, with or without cotransfected Gα13(Q226L)", "settings": "cotransfection of Gα13(Q226L) plasmid, excitation polarization resolved single-photon confocal microscopy", "experimental": "as §1, §2, §3"}, "[5]": {"target": "T6, activated form of the small GTPase Rac1 (Rac1(Q61L)) (Homo sapiens, UniProt P63000, Q61L)", "T6 construct": "expressed in transfected cells; host or cells: HEK293", "experiment": "Polarization microscopy of probe in HEK293 cells, with or without cotransfected Rac1(Q61L)", "settings": "cotransfection of Rac1(Q61L) plasmid, excitation polarization resolved single-photon confocal microscopy", "experimental": "as §1, §2, §3"}, "activated form of Gαi1": {"target": "T7, activated form of Gαi1 (Homo sapiens, UniProt P63096)", "T7 construct": "expressed in transfected cells; host or cells: HEK293", "experiment": "Polarization microscopy of probe in HEK293 cells, Gαi1 activated through the α2-adrenergic receptor by norepinephrine", "settings": "HEK293 cells cotransfected with Gαi1, Gβ1, Gγ2 and α2-adrenergic receptor; 10 μM norepinephrine; excitation polarization resolved single-photon confocal microscopy", "experimental": "as §1, §2, §3"}, "[6]": {"target": "T8, activated form of the β2-adrenergic receptor (Homo sapiens, UniProt P07550, E27Q/G16R)", "T8 construct": "expressed in transfected cells; host or cells: HEK293", "experiment": "Polarization microscopy of probe in HEK293 cells, β2-adrenergic receptor activated by norepinephrine", "settings": "cotransfection of β2-adrenergic receptor plasmid and 10 μM norepinephrine, excitation polarization resolved single-photon confocal microscopy", "experimental": "as §1, §2, §3"}, "[7]": {"target": "T9, activated form of the small GTPase RhoA (RhoA(Q63L)) (Homo sapiens, UniProt P61586, Q63L)", "T9 construct": "expressed in transfected cells; host or cells: HEK293", "T9 sequence (P61586 whole entry Q63L)": "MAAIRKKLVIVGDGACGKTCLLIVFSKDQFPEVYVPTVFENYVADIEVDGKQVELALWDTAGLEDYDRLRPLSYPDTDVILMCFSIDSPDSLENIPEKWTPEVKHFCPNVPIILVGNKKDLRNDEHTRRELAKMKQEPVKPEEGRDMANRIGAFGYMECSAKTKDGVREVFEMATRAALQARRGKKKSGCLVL", "experiment": "Polarization microscopy of probe in HEK293 cells, with or without cotransfected RhoA(Q63L)", "settings": "cotransfection of RhoA(Q63L) plasmid, excitation polarization resolved single-photon confocal microscopy", "experimental": "as §1, §2, §3"}, "[8]": {"system": "activated form of the β2-adrenergic receptor", "experiment": "Polarization microscopy of probe in HEK293 cells, β2-adrenergic receptor activated by norepinephrine", "settings": "β2-adrenergic receptor is the probe's anchoring moiety, 10 uM norepinephrine, excitation polarization resolved single-photon confocal microscopy", "experimental": "as §1, §2, §3"}, "[9]": {"settings": "excitation polarization resolved single-photon laser scanning confocal microscopy"}},
  "data": [
    {"substance": "GAP43-SSGSSGTG-meGFP-GRK2ct [Example 17]", "values": [
      {"measurement": "linear dichroism of the fluorescent moiety of the probe in presence of its target molecule compared with absence", "setting": "GβGγ dimer", "value": "statistically significantly lower"}
    ]},
    {"substance": "GAP43-SSGSSGTG-meGFP-IRS1 [Example 22]", "values": [
      {"measurement": "linear dichroism of the fluorescent moiety of the probe in presence of its target molecule compared with absence", "setting": "[1]", "value": "statistically significantly lower"}
    ]},
    {"substance": "GAP43-SSGSSGTG-meGFP-KB1753 [Example 4]", "values": [
      {"measurement": "linear dichroism of the fluorescent moiety of the probe in presence of its target molecule compared with absence", "setting": "[2]; [9]", "value": "statistically significantly higher"}
    ]},
    {"substance": "GAP43-SSGSSGTG-meGFP-NB33 [Example 16]", "values": [
      {"measurement": "linear dichroism of the fluorescent moiety of the probe in presence of its target molecule compared with absence", "setting": "[3]", "value": "statistically significantly lower"}
    ]},
    {"substance": "GAP43-SSGSSGTG-meGFP-PRGrh [Example 19]", "values": [
      {"measurement": "linear dichroism of the fluorescent moiety of the probe in presence of its target molecule compared with absence", "setting": "[4]", "value": "statistically significantly lower"}
    ]},
    {"substance": "GAP43-SSGSSGTG-meGFP-Δ6-PAK1 [Example 21]", "values": [
      {"measurement": "linear dichroism of the fluorescent moiety of the probe in presence of its target molecule compared with absence", "setting": "[5]", "value": "statistically significantly lower"}
    ]},
    {"substance": "IL4R-SSGSSGTG-meGFP-KB1753 [Example 5]", "values": [
      {"measurement": "linear dichroism of the fluorescent moiety of the probe in presence of its target molecule compared with absence", "setting": "[2]; [9]", "value": "statistically significantly higher"}
    ]},
    {"substance": "KB1753-cpmTurquoise2-GSGGSGG-hRas [Example 9]", "values": [
      {"measurement": "linear dichroism of the fluorescent moiety of the probe in presence of its target molecule compared with absence", "setting": "[2]; [9]", "value": "statistically significantly higher"}
    ]},
    {"substance": "KB1753-meGFP-GS24-hRas [Example 6]", "values": [
      {"measurement": "linear dichroism of the fluorescent moiety of the probe in presence of its target molecule compared with absence", "setting": "[2]; [9]", "value": "statistically significantly higher"}
    ]},
    {"substance": "KB1753-meGFP-GSGGSGG-hRas [Example 1]", "values": [
      {"measurement": "linear dichroism of the fluorescent moiety of the probe in presence of its target molecule compared with absence", "setting": "[2]; excitation polarization resolved single-photon confocal, two-photon and wide-field microscopy, FIG. 2A", "value": "statistically significantly higher"},
      {"measurement": "fluorescence polarization of the fluorescent moiety of the probe in presence of its target molecule compared with absence", "setting": "[2]; fluorescence polarization resolved single-photon laser scanning confocal microscopy, FIG. 2A", "value": "statistically significantly higher"},
      {"measurement": "linear dichroism of the fluorescent moiety of the probe in presence of activated Gαi1 compared with absence", "setting": "activated form of Gαi1", "value": "statistically significantly higher"}
    ]},
    {"substance": "KB1753-meGFP-GSGGSGG-kRas [Example 3]", "values": [
      {"measurement": "linear dichroism of the fluorescent moiety of the probe in presence of its target molecule compared with absence", "setting": "[2]; [9]", "value": "statistically significantly higher"}
    ]},
    {"substance": "NB33-meGFP-GSGGSGG-hRas [Example 15]", "values": [
      {"measurement": "linear dichroism of the fluorescent moiety of the probe in presence of its target molecule compared with absence", "setting": "[3]", "value": "statistically significantly lower"}
    ]},
    {"substance": "NB80-meGFP-GSGGSGG-hRas [Example 13]", "values": [
      {"measurement": "linear dichroism of the fluorescent moiety of the probe in presence of its target molecule compared with absence", "setting": "[6]", "value": "statistically significantly lower"}
    ]},
    {"substance": "rhotekin-meGFP-GSGGSGG-hRas [Example 20]", "values": [
      {"measurement": "linear dichroism of the fluorescent moiety of the probe in presence of its target molecule compared with absence", "setting": "[7]", "value": "statistically significantly higher"}
    ]},
    {"substance": "β2AR-SSGSSGTG-meGFP-NB80 [Example 14]", "values": [
      {"measurement": "linear dichroism of the fluorescent moiety of the probe in presence of its target molecule compared with absence", "setting": "[8]", "value": "statistically significantly higher"}
    ]}
  ]
}
